Laboratory results reported in patent US20240174720A1.

What was measured:
[1] = target: Purified human IgG (injectable IVIG) (human); experiment: dynamic binding capacity at 10% breakthrough; ligand on agarose in 1 ml column; human IgG 2.5 mg/ml; 4 min residence time
[2] = target: Purified human IgG (injectable IVIG) (human); experiment: dynamic binding capacity at 10% breakthrough after 35 h in 0.5 M NaOH; ligand on agarose column; human IgG 2.5 mg/ml
[3] = target: Purified human IgG (injectable IVIG) (human); experiment: dynamic binding capacity at 10% breakthrough after 24 h in 0.5 M NaOH; ligand on agarose column; human IgG 2.5 mg/ml
[4] = target: Purified human IgG (injectable IVIG) (human); experiment: DBC after 0.5 M NaOH soaking relative to DBC before soaking; agarose column; human IgG

DBC before NaOH soaking [1] [mg/mL] | DBC after 35 h soaking [2] [mg/mL] | DBC after 24 h soaking [3] [mg/mL] | Percentage of remaining DBC [4] [%] | Substance
62 | 44 | 52 | 70.9 | Z domain with S41A mutation Ig-binding affinity ligand (designed binder)
63 | 41 | 52 | 65.1 | Z domain with N52V mutation Ig-binding affinity ligand (designed binder)
65 | 43 | 53 | 66.1 | Z domain with S41V mutation Ig-binding affinity ligand (designed binder)
65 | 53 | 59 | 81.5 | Z domain with S41A/N52V mutations Ig-binding affinity ligand (designed binder)
59 | 42 | 50 | 71.2 | Z domain with S41A/N52L mutations Ig-binding affinity ligand (designed binder)
64 | 49 | 56 | 76.5 | Z domain with S41V/N52V mutations Ig-binding affinity ligand (designed binder)
58 | 39 | 47 | 67.2 | Z domain with N52L mutation Ig-binding affinity ligand (designed binder)
